In assay [1] the target is mouse TrkB, endogenous on mouse cortical neurons and mouse embryonic stem cell line (mouse) (UniProt P15209). The assay is described as follows: cell-based or functional assay.
For assay [2], the target named is human TrkB (tropomyosin receptor kinase B) expressed on CHO reporter cells (human) (UniProt Q16620). The assay is described as follows: cell-based or functional assay.
Chain of UniProt Q16620 (Q16620 32-822): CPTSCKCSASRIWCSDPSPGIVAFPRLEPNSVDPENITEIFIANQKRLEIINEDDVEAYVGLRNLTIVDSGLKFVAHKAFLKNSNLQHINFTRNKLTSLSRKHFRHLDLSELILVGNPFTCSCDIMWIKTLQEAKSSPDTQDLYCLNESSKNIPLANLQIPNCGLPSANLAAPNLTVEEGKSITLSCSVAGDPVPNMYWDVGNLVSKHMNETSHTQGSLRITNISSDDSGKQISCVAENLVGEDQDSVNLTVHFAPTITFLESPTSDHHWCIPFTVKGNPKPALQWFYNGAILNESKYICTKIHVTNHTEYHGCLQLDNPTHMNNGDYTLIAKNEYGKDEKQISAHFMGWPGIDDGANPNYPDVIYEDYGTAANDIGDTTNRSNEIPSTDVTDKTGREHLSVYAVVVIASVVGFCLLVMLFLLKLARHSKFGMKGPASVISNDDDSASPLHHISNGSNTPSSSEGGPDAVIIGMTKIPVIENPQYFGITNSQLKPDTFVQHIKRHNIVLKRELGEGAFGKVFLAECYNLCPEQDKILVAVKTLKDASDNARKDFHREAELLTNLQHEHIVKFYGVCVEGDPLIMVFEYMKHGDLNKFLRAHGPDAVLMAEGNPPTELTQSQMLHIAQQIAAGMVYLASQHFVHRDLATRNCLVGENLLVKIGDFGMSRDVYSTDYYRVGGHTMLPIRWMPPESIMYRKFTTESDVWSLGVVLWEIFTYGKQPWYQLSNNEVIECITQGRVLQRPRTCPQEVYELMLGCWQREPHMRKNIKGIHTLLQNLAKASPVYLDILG

Chain of UniProt P15209 (P15209 32-821): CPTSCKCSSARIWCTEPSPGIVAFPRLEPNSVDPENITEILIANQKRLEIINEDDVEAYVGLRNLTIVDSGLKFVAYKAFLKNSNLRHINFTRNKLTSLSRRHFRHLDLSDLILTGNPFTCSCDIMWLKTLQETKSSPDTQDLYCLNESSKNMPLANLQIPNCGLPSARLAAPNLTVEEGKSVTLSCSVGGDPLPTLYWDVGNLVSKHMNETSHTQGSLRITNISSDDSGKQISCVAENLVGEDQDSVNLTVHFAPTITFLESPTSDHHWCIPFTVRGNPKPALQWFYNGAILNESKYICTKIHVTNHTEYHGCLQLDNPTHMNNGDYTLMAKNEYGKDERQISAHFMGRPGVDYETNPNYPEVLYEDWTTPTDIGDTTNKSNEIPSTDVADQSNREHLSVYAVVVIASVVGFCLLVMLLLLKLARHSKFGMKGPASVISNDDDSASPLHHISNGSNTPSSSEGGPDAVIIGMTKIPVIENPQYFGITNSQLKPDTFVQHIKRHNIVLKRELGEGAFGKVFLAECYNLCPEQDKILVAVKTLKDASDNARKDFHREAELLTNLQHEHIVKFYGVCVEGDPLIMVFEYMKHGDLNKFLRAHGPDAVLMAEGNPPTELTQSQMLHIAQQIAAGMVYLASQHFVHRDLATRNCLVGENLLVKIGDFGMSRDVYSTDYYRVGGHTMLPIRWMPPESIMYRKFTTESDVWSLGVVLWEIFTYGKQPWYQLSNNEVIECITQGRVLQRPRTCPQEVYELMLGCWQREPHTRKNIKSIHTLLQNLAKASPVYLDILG

In assay [1], “brain derived neurotrophic factor (BDNF) (from UniProt P23560 129-247) (ligand)” displayed a TrkB phosphorylation in mouse embryonic stem cell line of 2 nM. Also, the signaling in human TrkB reporter cell in assay [2] stood at 2 nM.

Source of the values: patent US20190177418A1.
